# In the supplement of paper PMC12042874:
# ± gives the uncertainty stated by the source.
# Test: amyloid nucleation score (Sup35N fusion, yeast selection) (log enrichment); library NNK1; higher = more nucleation; inactive = no reads after selection
# Method in brief: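 After 24 hours of induction with 100 μM copper sulfate, psi-negative yeast expressing peptides of 20 random codons fused to Sup35N were grown for 7 days at 30°C on medium lacking adenine and uracil. Input and output plasmid inserts were sequenced with Illumina, and sequences with under 100 input reads were discarded. Scores for nucleation are the DiMSum log enrichment of output over input reads, centred on the mode score of non-aggregating sequences.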
row,Substance,amyloid nucleation score
1,SILQFALLMNSRDLVHRGYF,3.38 ± 0.17
2,ILKSFLD,-0.071 ± 0.42
3,GDIVQLGPKFCKLYLCIWNC,6.369 ± 0.056
4,PLKFTSSMSG,-1.23 ± 0.51
5,SGHNLWRRGQKWSL,-0.455 ± 0.58
6,YFDKKLGLS,inactive
7,RNQRSSMWVGNRCYGGRCVW,0.898 ± 0.93
8,GLCDNHINVVVVS,0.788 ± 0.81
9,IISKGSWSKSTDFGGLM,-1.83 ± 1.7
10,TVGSIRRNHEVLWGTRILSG,-1.69 ± 2.7
11,CSFFTKDSDTP,0.327 ± 0.3
12,GCFASTSNTRC,1.05 ± 0.66
13,LTMGRKMVPYHLVSAMMGTV,-0.114 ± 0.57
14,IAYGSINCGFNRL,1.18 ± 0.32
15,LVMTYVFLDCI,-0.634 ± 1.1
16,FVKFVTSEAFDHVLRTNWN,inactive
17,FLPRSYCVFSWFHLSVSTAR,inactive
18,IIFGCCVF,7.982 ± 0.062
19,HDPDPVDYGCGWVSVSCGVA,0.819 ± 0.82
20,FLNLGSSDQSHYSCTKEWSH,-0.157 ± 0.51
21,ENGIGN,0.453 ± 0.22
22,FLEFAYVVFKILEKNGGLSY,-1.56 ± 0.86
23,GSCLFVRGSFVDVGRLFESV,0.643 ± 0.67
24,IYPCICSRNFDPKLYKVNTR,0.605 ± 0.66
25,GYTLRPNERPKIRQV,0.244 ± 0.63
26,RTLLSFNRDVSFEGQPPGWL,0.352 ± 1

row,Substance,amyloid nucleation score
1,LRREVINWDQRFSFLKSFTW,2.89 ± 0.15
2,NIFVGLLTWLCVKLCMGMFV,-0.633 ± 0.94
3,VNYSNWFSMADSFRSRSFSV,-0.104 ± 1.1
4,SIVETAVVSKYVERSYGQEG,-0.437 ± 0.36
5,FIDRIYSIVYGVGGCMMSLI,0.008 ± 0.47
6,YDLGLIVSYDLLSVKEVPDR,1.48 ± 0.55
7,RASHGAYDNFRGKKFMMRVM,-1.01 ± 0.54
8,SGSINENVKYSDTLVWLWKM,4.92 ± 0.055
9,RRMTDLFV,-0.354 ± 0.3
10,NFPVVW,0.286 ± 0.28
11,EFYVTCFCVRMKTKAYAPLV,0.106 ± 0.31
12,VALDMYCFQYFQTNYYS,8.411 ± 0.045
13,RSFTVCEFMFLFRLWDNSAY,0.11 ± 0.9
14,GLSGTSALPPGIS,0.318 ± 0.79
15,LFNMFDQITCIVDSDNYRHA,0.116 ± 0.25
16,IVRIESVEFSDYADFAFEVR,0.67 ± 0.59
17,QRSCNAVTFVGCQYNFFPTE,7.091 ± 0.05
18,SCYGEFEPFRESRMGRSNLA,0.538 ± 0.75
19,FTLCQASYMN,-0.655 ± 0.67
20,SIFSSSEVGVQLYTMGG,0.91 ± 0.62
21,SHFLF,0.93 ± 0.7
22,KVALESSRAV,0.036 ± 0.88
23,YEQVNIRNG,0.138 ± 0.87
24,FCRKSQEKYWVPFK,-0.667 ± 1
25,SKSLKYICMYFQHTNSLASI,0.241 ± 1.2
26,DAQFGRHVLGLFFSRQEMLV,-1.52 ± 1.2

row,Substance,amyloid nucleation score
1,KTGCVGTS,inactive
2,RHSSYIGMCRT,1.66 ± 0.56
3,IISRLCLQLPATRT,1.21 ± 0.67
4,LTHWTQHMF,-0.37 ± 0.87
5,ELVSS,-0.455 ± 0.26
6,FPLAIVLIVN,0.059 ± 0.39
7,YFGVFCQRMMVTALSPKNPT,-0.369 ± 0.32
8,MVLDLVRRNAQL,-0.151 ± 0.68
9,IASDRFF,0.77 ± 0.97
10,INDSRFVAYTCLRVTEKYGL,0.855 ± 0.22
11,EVGHFRSDVDLFWV,-1.04 ± 0.44
12,NDRTGCVVGLHCEMNI,5.961 ± 0.045
13,DWLMMDLL,0.103 ± 1.1
14,HLGGVWLLIHMRRSFPLDIW,0.207 ± 0.7
15,MGYCIWFYLKSYH,-0.074 ± 0.3
16,LVNDPVFMGTWILSARICNV,0.323 ± 0.36
17,MSSRDNFWVSRGAMNYRMGA,-0.325 ± 0.33
18,IRPNMRAVKIEVQDVGSQCV,0.428 ± 0.6
19,VTMSDLATHNYREMNSLFSF,0.091 ± 0.28
20,RRMKFDMSNGRQGSLVNHGR,0.214 ± 0.53
21,KSRRSCQQLIIVKHVVHARR,4.08 ± 0.061
22,ESTSYCKSDYLVRFVFEDGL,-0.294 ± 0.39
23,MLIFHTCA,0.483 ± 1.1
24,FMTSDPYVLIHQALVRINEY,4.58 ± 0.095
25,ILSEPNELTGACLAS,0.29 ± 0.78
26,NMAMYSIWGGWWMVLFCVLL,inactive

row,Substance,amyloid nucleation score
1,GDSWRSYLRILGTYMVRRWC,0.244 ± 0.54
2,VMYEVVHVNDDRCEAWLLSR,-0.018 ± 1.5
3,RAMTVLLGGNFQMIIKTFEL,3.09 ± 0.074
4,VSLRTISWNMLLNDCWHVKM,0.176 ± 0.72
5,VIITLSRCSRDHTDVMGTFV,-0.81 ± 1.4
6,FLAIILSWPFSAQFGFNVEG,0.533 ± 0.62
7,HYRYGGLAMFLVWIEMFLYW,0.407 ± 1.1
8,SGGIQCTGGRISVSCAVGKN,-0.224 ± 0.94
9,SGLLS,-1.12 ± 0.65
10,MLPMLQPTLQET,0.313 ± 0.42
11,SLLSAMDLPPFLSYRLSPRW,0.059 ± 1.2
12,LYYNFKF,0.321 ± 0.33
13,YLNILMSWI,-0.921 ± 0.66
14,DFTVA,0.596 ± 0.78
15,HSGYTYDRRYPCNYDFSIQV,inactive
16,SDERKGPGYPSMITSWQGGS,-1.31 ± 2.4
17,PDVVSTSLILGGLNSPELEH,0.016 ± 0.6
18,DKPFCFILNYNSVYDCVMSV,0.331 ± 1.2
19,NDDSDSVVFSTNGGIYFMHG,-0.177 ± 0.53
20,VERTCGVGTRLFTCYGQVAI,-0.3 ± 0.53
21,ELKPKAFVVLSDHRHGYKRQ,-0.076 ± 0.97
22,ELNDVMRSGSKG,0.992 ± 1
23,RCVFNRIKDFSVRDRWSFSG,1.03 ± 0.73
24,STDSCVALSMATWF,0.188 ± 0.46
25,FYARMLYYA,inactive
26,CVFVRVF,inactive

row,Substance,amyloid nucleation score
1,RIDCYW,-0.858 ± 1.1
2,ETSPF,-0.03 ± 0.76
3,TKTSTSFGRVKPVN,0.793 ± 0.85
4,VLNEAYYDLYVYSHVSFSVL,-0.248 ± 0.42
5,VIFDNGRLIEHCYERLTRPW,-0.327 ± 0.61
6,MGRMS,0.22 ± 0.69
7,RQPANEELPFSVTGK,-0.892 ± 0.65
8,NLSSLSWVTIYKNFCAIMSS,-0.378 ± 0.58
9,EDRDTLKGM,0.806 ± 0.57
10,TGLSSYM,-0.701 ± 0.97
11,LYMYRSYI,0.137 ± 0.42
12,RNWCIMFLTYVL,3.74 ± 0.083
13,SWTGMNSHSLKKHLGI,-0.447 ± 0.93
14,TLRLAREGWWEWKHVSRGEY,-0.033 ± 0.26
15,SQEHCMVNTK,0.112 ± 0.59
16,DNDSWYKYPCFWLCYFPACN,5.17 ± 0.052
17,SQFYVLVIWLSCALSMGSSI,-0.04 ± 0.45
18,MGDVFILFLLAGFLEDHNGY,-1.24 ± 0.45
19,SIWCGRYIIMESVGTPLRSR,0.438 ± 0.8
20,VCRLGSNPVQWVGPGSSVFC,1.23 ± 0.71
21,ITGFAPVRVVCEYLS,0.182 ± 0.6
22,LWCITYH,4.14 ± 0.1
23,YGFVAYSDIVKAFGVIKSTG,-0.315 ± 0.31
24,RCVMRAHFSTWLHKVSTSVW,0.677 ± 0.54
25,SFHWQKGSSSYTVSPHSAKL,0.239 ± 0.26
26,VEAPGLSCAIRGWNTVVIRR,0.387 ± 0.49
